Laboratory results taken from the supplement of paper PMC10065799, “High-throughput profiling of sequence recognition by tyrosine kinases and SH2 domains using bacterial peptide display” (eLife, 2023).

Biological target: EPHB2 (UniProt P29323)
Assay: phosphorylation enrichment, bacterial display (enrichment ratio); higher = better substrate or ligand; peptides without Tyr show the background
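Wherever SH2 binding enrichment of the phosphorylated peptide, bacterial display is given: peptide library displayed on the E. coli surface as eCPX fusions, selected cells deep-sequenced, score is each peptide's frequency after selection divided by its frequency in the input.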
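Wherever phosphorylation enrichment, bacterial display is given: 11-residue human phosphosite peptides and single-mutation variants displayed on the E. coli surface, counted by deep sequencing, each peptide's frequency after selection divided by its frequency in the unselected input library; frequency after pTyr selection over input frequency; kinase dosed for 20-30% of maximal phosphorylation in three min.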

Chain of EPHB2 (P29323 whole entry, looked up): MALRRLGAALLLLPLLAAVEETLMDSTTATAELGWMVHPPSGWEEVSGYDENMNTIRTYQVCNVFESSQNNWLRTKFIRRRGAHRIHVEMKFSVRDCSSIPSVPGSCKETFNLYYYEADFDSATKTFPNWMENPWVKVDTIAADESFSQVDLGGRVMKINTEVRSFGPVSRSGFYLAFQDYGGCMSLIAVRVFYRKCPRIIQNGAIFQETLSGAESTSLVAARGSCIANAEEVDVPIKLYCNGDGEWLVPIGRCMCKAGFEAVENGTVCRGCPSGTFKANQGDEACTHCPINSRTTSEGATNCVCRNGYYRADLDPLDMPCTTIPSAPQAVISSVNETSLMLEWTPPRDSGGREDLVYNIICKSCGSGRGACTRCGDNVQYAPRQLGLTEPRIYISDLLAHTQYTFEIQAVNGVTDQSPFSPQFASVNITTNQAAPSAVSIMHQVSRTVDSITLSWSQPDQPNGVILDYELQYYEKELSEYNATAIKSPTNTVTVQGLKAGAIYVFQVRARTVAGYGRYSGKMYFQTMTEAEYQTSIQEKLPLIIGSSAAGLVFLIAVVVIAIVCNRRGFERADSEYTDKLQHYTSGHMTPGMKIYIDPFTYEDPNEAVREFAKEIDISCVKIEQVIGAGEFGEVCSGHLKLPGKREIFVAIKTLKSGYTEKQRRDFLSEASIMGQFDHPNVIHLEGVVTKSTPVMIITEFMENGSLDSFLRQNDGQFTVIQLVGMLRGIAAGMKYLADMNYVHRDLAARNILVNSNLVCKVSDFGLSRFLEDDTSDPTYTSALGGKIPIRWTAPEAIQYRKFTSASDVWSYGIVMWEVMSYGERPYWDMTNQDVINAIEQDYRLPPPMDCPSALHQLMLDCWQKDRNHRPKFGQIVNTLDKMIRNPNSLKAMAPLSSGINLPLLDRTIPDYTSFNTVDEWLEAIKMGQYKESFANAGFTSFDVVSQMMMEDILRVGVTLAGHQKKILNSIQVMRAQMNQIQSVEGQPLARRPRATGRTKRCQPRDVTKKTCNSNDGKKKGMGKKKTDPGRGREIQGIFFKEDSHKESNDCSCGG

Sequence | phosphorylation enrichment
DGMADCSDPSY [CDC5L_Y459_Y459C] | 0.595
AKLDEYIAIAK [RCOR3_Y46] | 0.565
YAADYYKLLGN [ROR2_Y646] | 0.863
PRDGEYFTLQI [TP53_Y327_L323R] | 1.19
IGERTYGQVFK [CDK13_Y716_G714R_YF] | 0.557
RGYRQYAYDGK [HLA-A_Y140_D140Y] | 0.243
IIAVHYVLEES [RYR2_Y4559] | 0.628
KDYETYQPFQN [CTNND2_Y1157] | 7.67
SLHPGYNFRFA [P2RX7_Y291_Y288H_YF] | 0.417
SARVRYLMAEK [LDHB_Y173_F171V] | 0.521
KLIETYFSKNF [PLP1_Y50_YF] | 0.452
TQFWRYFAGNL [SLC25A5_Y112_L111R] | 0.589
QNTVDYFDLFG [PTPN11_Y62_G60V_YF] | 1.16
ALDRPYTSKHS [NANS_Y71_E68D] | 0.508
PRPACYPSTVS [CACNA1C_Y1832_G1831C] | 0.435
NIQKKYFRAIL [CHD7_Y1217_YF] | 0.383
YGEYRYRSVIK [CFTR_Y517_D513G] | 0.462
KGFCGYSFDDI [TMEM230_Y110_R108C_YF] | 0.568
ATKNDYWAMLA [WWOX_Y287_P282A] | 1.15
HEDPMYDIIRD [RP9_Y142] | 3.85
MHFSNYVSKGS [PDGFRA_Y849_D846Y_YF] | 0.439
QRASDYYSQQM [GBP6_Y333_A331S] | 0.589
DWRQEYVLNEP [TGM1_Y267_S272P] | 0.426
ADFFDYGHGLS [KHDRBS3_Y304_YF] | 0.38
LADKPYTFEFF [FXN_Y118_D122Y_YF] | 0.683
VIESSYTSADG [DHCR7_Y382_C380S] | 0.596
TFGVVYKARNK [CDK2_Y19_YF] | 0.518
CRVEPYGENFN [APOA4_Y310_R305C] | 0.651
PLDEEYFTLQI [TP53_Y327_G325E] | 0.888

Biological target: Grb2 SH2 (UniProt P62993)
Assay: SH2 binding enrichment of the phosphorylated peptide, bacterial display (enrichment ratio); higher = better substrate or ligand; peptides without Tyr show the background

Chain of Grb2 SH2 (P62993 whole entry, looked up): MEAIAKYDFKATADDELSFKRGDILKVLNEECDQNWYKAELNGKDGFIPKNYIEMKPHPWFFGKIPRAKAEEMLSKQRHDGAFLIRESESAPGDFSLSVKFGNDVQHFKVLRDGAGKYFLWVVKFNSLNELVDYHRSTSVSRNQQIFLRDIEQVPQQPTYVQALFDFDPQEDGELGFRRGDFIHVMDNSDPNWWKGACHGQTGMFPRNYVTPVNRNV

Sequence | SH2 binding enrichment
DGMADCSDPSY [CDC5L_Y459_Y459C] | 1.22
AKLDEYIAIAK [RCOR3_Y46] | 0.945
YAADYYKLLGN [ROR2_Y646] | 0.683
PRDGEYFTLQI [TP53_Y327_L323R] | 0.753
IGERTYGQVFK [CDK13_Y716_G714R_YF] | 0.857
RGYRQYAYDGK [HLA-A_Y140_D140Y] | 0.679
IIAVHYVLEES [RYR2_Y4559] | 1.41
KDYETYQPFQN [CTNND2_Y1157] | 0.887
SLHPGYNFRFA [P2RX7_Y291_Y288H_YF] | 0.89
SARVRYLMAEK [LDHB_Y173_F171V] | 0.925
KLIETYFSKNF [PLP1_Y50_YF] | 0.9
TQFWRYFAGNL [SLC25A5_Y112_L111R] | 0.977
QNTVDYFDLFG [PTPN11_Y62_G60V_YF] | 1.14
ALDRPYTSKHS [NANS_Y71_E68D] | 0.926
PRPACYPSTVS [CACNA1C_Y1832_G1831C] | 0.865
NIQKKYFRAIL [CHD7_Y1217_YF] | 0.96
YGEYRYRSVIK [CFTR_Y517_D513G] | 0.769
KGFCGYSFDDI [TMEM230_Y110_R108C_YF] | 0.71
ATKNDYWAMLA [WWOX_Y287_P282A] | 0.677
HEDPMYDIIRD [RP9_Y142] | 0.63
MHFSNYVSKGS [PDGFRA_Y849_D846Y_YF] | 0.831
QRASDYYSQQM [GBP6_Y333_A331S] | 0.928
DWRQEYVLNEP [TGM1_Y267_S272P] | 0.877
ADFFDYGHGLS [KHDRBS3_Y304_YF] | 0.863
LADKPYTFEFF [FXN_Y118_D122Y_YF] | 0.742
VIESSYTSADG [DHCR7_Y382_C380S] | 0.894
TFGVVYKARNK [CDK2_Y19_YF] | 0.801
CRVEPYGENFN [APOA4_Y310_R305C] | 0.703
PLDEEYFTLQI [TP53_Y327_G325E] | 0.891

Biological target: c-Src SH2
Assay: as above

Sequence | SH2 binding enrichment
DGMADCSDPSY [CDC5L_Y459_Y459C] | 0.615
AKLDEYIAIAK [RCOR3_Y46] | 0.434
YAADYYKLLGN [ROR2_Y646] | 0.504
PRDGEYFTLQI [TP53_Y327_L323R] | 0.405
IGERTYGQVFK [CDK13_Y716_G714R_YF] | 0.519
RGYRQYAYDGK [HLA-A_Y140_D140Y] | 0.44
IIAVHYVLEES [RYR2_Y4559] | 1.09
KDYETYQPFQN [CTNND2_Y1157] | 0.43
SLHPGYNFRFA [P2RX7_Y291_Y288H_YF] | 0.703
SARVRYLMAEK [LDHB_Y173_F171V] | 0.862
KLIETYFSKNF [PLP1_Y50_YF] | 0.542
TQFWRYFAGNL [SLC25A5_Y112_L111R] | 0.545
QNTVDYFDLFG [PTPN11_Y62_G60V_YF] | 0.759
ALDRPYTSKHS [NANS_Y71_E68D] | 0.485
PRPACYPSTVS [CACNA1C_Y1832_G1831C] | 0.65
NIQKKYFRAIL [CHD7_Y1217_YF] | 0.566
YGEYRYRSVIK [CFTR_Y517_D513G] | 0.817
KGFCGYSFDDI [TMEM230_Y110_R108C_YF] | 0.983
ATKNDYWAMLA [WWOX_Y287_P282A] | 0.497
HEDPMYDIIRD [RP9_Y142] | 1.92
MHFSNYVSKGS [PDGFRA_Y849_D846Y_YF] | 0.551
QRASDYYSQQM [GBP6_Y333_A331S] | 0.39
DWRQEYVLNEP [TGM1_Y267_S272P] | 0.523
ADFFDYGHGLS [KHDRBS3_Y304_YF] | 0.437
LADKPYTFEFF [FXN_Y118_D122Y_YF] | 0.675
VIESSYTSADG [DHCR7_Y382_C380S] | 4.23
TFGVVYKARNK [CDK2_Y19_YF] | 0.495
CRVEPYGENFN [APOA4_Y310_R305C] | 0.675
PLDEEYFTLQI [TP53_Y327_G325E] | 0.551

Biological target: SHP2-C SH2
Assay: as above

Sequence | SH2 binding enrichment
DGMADCSDPSY [CDC5L_Y459_Y459C] | 0.629
AKLDEYIAIAK [RCOR3_Y46] | 0.83
YAADYYKLLGN [ROR2_Y646] | 0.467
PRDGEYFTLQI [TP53_Y327_L323R] | 0.631
IGERTYGQVFK [CDK13_Y716_G714R_YF] | 0.754
RGYRQYAYDGK [HLA-A_Y140_D140Y] | 0.607
IIAVHYVLEES [RYR2_Y4559] | 1.28
KDYETYQPFQN [CTNND2_Y1157] | 0.664
SLHPGYNFRFA [P2RX7_Y291_Y288H_YF] | 0.61
SARVRYLMAEK [LDHB_Y173_F171V] | 0.755
KLIETYFSKNF [PLP1_Y50_YF] | 0.626
TQFWRYFAGNL [SLC25A5_Y112_L111R] | 0.894
QNTVDYFDLFG [PTPN11_Y62_G60V_YF] | 0.876
ALDRPYTSKHS [NANS_Y71_E68D] | 0.613
PRPACYPSTVS [CACNA1C_Y1832_G1831C] | 0.8
NIQKKYFRAIL [CHD7_Y1217_YF] | 0.838
YGEYRYRSVIK [CFTR_Y517_D513G] | 0.819
KGFCGYSFDDI [TMEM230_Y110_R108C_YF] | 0.516
ATKNDYWAMLA [WWOX_Y287_P282A] | 0.752
HEDPMYDIIRD [RP9_Y142] | 0.664
MHFSNYVSKGS [PDGFRA_Y849_D846Y_YF] | 0.578
QRASDYYSQQM [GBP6_Y333_A331S] | 0.403
DWRQEYVLNEP [TGM1_Y267_S272P] | 0.75
ADFFDYGHGLS [KHDRBS3_Y304_YF] | 0.741
LADKPYTFEFF [FXN_Y118_D122Y_YF] | 0.719
VIESSYTSADG [DHCR7_Y382_C380S] | 0.861
TFGVVYKARNK [CDK2_Y19_YF] | 0.671
CRVEPYGENFN [APOA4_Y310_R305C] | 0.712
PLDEEYFTLQI [TP53_Y327_G325E] | 1.12
